The source of these data is patent US20120207777A1 (Novartis, published 2012).

The data set deals with the molecule itself. Briefly: gel filtration and gel analysis with and without DTT (self-association).

B1: Recombinant His-tagged AcfD (orf3526) from strain IHE3034 without a leader peptide (other)
chain: CDGGGSGSSSDTPSVDSGSGTLPEVKPDPTPTPEPTPEPTPDPEPTPDPTPDPEPTPEPEPEPVPTKTGYLTLGGSQRVTGATCNGESSDGFTFTPGNTVSCVVGSTTIATFNTQSEAARSLRAVDKVSFSLEDAQELANSENKKTNAISLVTSSDSCPADAEQLCLTFSSVVDRARFEKLYKQIDLATDNFSKLVNEEVENNAATDKAPSTHTSTVVPVTTEGTKPDLNASFVSANAEQFYQYQPTEIILSEGQLVDSLGNGVAGVDYYTNSGRGVTDENGKFSFSWGETISFGIDTFELGSVRGNKSTIALTELGDEVRGANIDQLIHRYSTTGQNNTRVVPDDVRKVFAEYPNVINEIINLSLSNGATLDEGDQNVVLPNEFIEQFKTGQAKEIDTAICAKTDGCNEARWFSLTTRNVNDGQIQGVINKLWGVDTNYQSVSKFHVFHDSTNFYGSTGNARGQAVVNISNSAFPILMARNDKNYWLAFGEKRAWDKNELAYITEAPSIVQPENVTRDTATFNLPFISLGQVGEGKLMVIGNPHYNSILRCPNGYSWGGGVNSKGECTLSGDSDDMKHFMQNVLRYLSNDIWQPNTKSIMTVGTNLENVYFKKAGQVLGNSAPFAFHEDFTGITVKQLTSYGDLNPEEIPLLILNGFEYVTQWSGDPYAVPLRADTSKPKLTQQDVTDLIAYLNKGGSVLIMENVMSNLKEESASSFVRLLDAAGLSMALNKSVVNNDPQGYPDRVRQRRATGIWVYERYPAADGAQPPYTIDPNTGEVTWKYQQDNKPDDKPKLEVASWQEEVEGKQVTRYAFIDEAEYTTEESLEAAKAKIFEKFPGLQECKDSTYHYEINCLERRPGTDVPVTGGMYVPRYTQLNLDADTAKAMVQAADLGTNIQRLYQHELYFRTKGSKGERLNSVDLERLYQNMSVWLWNDTKYRYEEGKEDELGFKTFTEFLNCYANDAYAGGTKCSADLKKSLVDNNMIYGDGSSKAGMMNPSYPLNYMEKPLTRLMLGRSWWDLNIKVDVEKYPGSVSAKGESVTENISLYSNPTKWFAGNMQSTGLWAPAQQDVTIKSSASVPVTVTVALADDLTGREKHEVALNRPPRVTKTYTLEANGEVTFKVPYGGLIYIKGDSKDDVSANFTFTGVVKAPFYKDGEWKNDLDSPAPLGELESASFVYTTPKKNLEASNFTGGVAEFAKDLDTFASSMNDFYGRNDEDGKHRMFTYKNLTGHKHRFTNDVQISIGDAHSGYPVMNSSFSTNSTTLPTTPLNDWLIWHEVGHNAAETPLNVPGATEVANNVLALYMQDRYLGKMNRVADDITVAPEYLDESNGQAWARGGAGDRLLMYAQLKEWAEENFDIKQWYPDGELPKFYSDRKGMKGWNLFQLMHRKARGDDVGNSTFGGKNYCAESNGNAADTLMLCASWVAQADLSEFFKKWNPGASAYQLPGATEMSFQGGVSSSAYSTLASLKLPKPEKGPETINKVTEHKMSAE
notes: Expressed without the leader peptide; also called 3526 (his tag, leader peptide removed); not shown: His tag
With B1, the binding result is recorded as “binds”.
